Test results from PMC3267021, “The Molecular Basis for the Endocytosis of Small R-SNAREs by the Clathrin Adaptor CALM” (Cell, 2011).
Substitutions are numbered along the chain they refer to. Where “and” joins values, the source holds several entries; their conditions need not be identical. Equal values may be shown once.

T1: His6MycCALM_(ANTH) (CALM ANTH domain, residues 1-289) (rat, UniProt O55012 1-289)
T1 construct: source: E. coli BL21(DE3) pLysS, purified (Ni2+-NTA agarose, S200 gel filtration)
T1 sequence (looked up): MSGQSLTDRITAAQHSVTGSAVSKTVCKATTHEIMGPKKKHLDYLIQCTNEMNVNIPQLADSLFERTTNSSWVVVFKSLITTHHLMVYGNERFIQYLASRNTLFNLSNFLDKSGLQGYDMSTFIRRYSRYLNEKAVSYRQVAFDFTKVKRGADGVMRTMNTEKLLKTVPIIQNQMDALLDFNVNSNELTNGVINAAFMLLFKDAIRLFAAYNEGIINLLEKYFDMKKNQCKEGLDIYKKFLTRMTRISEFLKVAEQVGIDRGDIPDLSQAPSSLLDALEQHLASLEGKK

T2: CALM_(ANTH(1-264)) part of the CALM_(ANTH(1-264)):VAMP8_((11-41)) chimera (rat, UniProt O55012 1-264)
T2 construct: PDB 3ZYM), VAMP8 11-41; also called CALM_(ANTH) in the chimeric complex; source: E. coli BL21(DE3) pLysS, purified (glutathione sepharose, thrombin cleavage of GST, S200 gel filtration); not shown: GST, N-terminal, cleaved
T2 sequence (looked up): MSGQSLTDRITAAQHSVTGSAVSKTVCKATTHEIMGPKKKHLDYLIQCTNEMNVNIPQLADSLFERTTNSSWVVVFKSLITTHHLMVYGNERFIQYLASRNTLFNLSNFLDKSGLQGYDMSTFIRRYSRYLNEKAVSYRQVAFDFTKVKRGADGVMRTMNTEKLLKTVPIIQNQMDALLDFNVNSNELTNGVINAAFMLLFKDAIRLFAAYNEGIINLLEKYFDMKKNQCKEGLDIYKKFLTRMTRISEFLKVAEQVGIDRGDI

T3: SNAP23, GST cleaved (human, UniProt O00161 1-211)
T3 construct: SNAP23, human; Construct pGEX 4T1 SNAP23 (human); source: E. coli BL21(DE3) pLysS, purified (glutathione sepharose, thrombin cleavage of GST); not shown: GST, N-terminal, cleaved
T3 sequence (looked up): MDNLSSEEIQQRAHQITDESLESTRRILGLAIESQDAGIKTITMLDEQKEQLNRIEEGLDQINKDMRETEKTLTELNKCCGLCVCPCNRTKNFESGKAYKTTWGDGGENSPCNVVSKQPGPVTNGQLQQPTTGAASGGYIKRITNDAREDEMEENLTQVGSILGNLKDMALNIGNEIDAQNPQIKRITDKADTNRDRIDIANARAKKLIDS

T4: CALM_(ANTH(1-289)), GST cleaved (rat, UniProt O55012 1-289)
T4 construct: analyte of the liposome-based SPR and crystallised as 3ZYK; also called GST cleaved CALM_(ANTH); source: E. coli BL21(DE3) pLysS, purified (glutathione sepharose, thrombin cleavage of GST, S200 gel filtration); not shown: GST, N-terminal, cleaved
T4 sequence (looked up): T1 sequence (looked up)

B1: GST-VAMP3 (VAMP3 residues 1-81) (domain or fragment)
chain: MSTGVPSGSSAATGSNRRLQQTQNQVDEVVDIMRVNVDKVLERDQKLSELDDRADALQAGASQFETSAAKLKRKYWWKNCK
B2: GSTVAMP8 L44PL51P (domain or fragment, mouse, UniProt O70404 1-76, looked up)
chain: MEEASGSAGNDRVRNLQSEVEGVKNIMTQNVERILSRGENLDHPRNKTEDPEATSEHFKTTSQKVARKFWWKNVKM
notes: VAMP8, mouse, residues 1-76; source: E. coli BL21(DE3) pLysS, purified (glutathione sepharose, S200 gel filtration)
B3: GST-VAMP8_(10-41) (domain or fragment, mouse, UniProt O70404 10-41, looked up)
chain: NDRVRNLQSEVEGVKNIMTQNVERILSRGENL
notes: VAMP8, mouse, residues 10-41 (N-terminal half of the SNARE motif); Construct pGEX 4T2 VAMP8_((10-41)); also called residues 10-41 of VAMP8; source: E. coli BL21(DE3) pLysS, purified (glutathione sepharose, S200 gel filtration)
B4: VAMP8_((11-41)) part of the CALM_(ANTH(1-264)):VAMP8_((11-41)) chimera (domain or fragment, mouse, UniProt O70404 11-41, looked up)
chain: DRVRNLQSEVEGVKNIMTQNVERILSRGENL
notes: VAMP8, mouse, residues 11-41; also called VAMP8 helix; residues 11-41 of VAMP8; source: E. coli BL21(DE3) pLysS, purified (as part of the chimera)
B5: GST-VAMP8 (VAMP8 residues 1-76, full cytoplasmic portion) (domain or fragment, mouse, UniProt O70404 1-76, looked up)
chain: B2 chain with P44L, P51L
notes: VAMP8, mouse, residues 1-76 (full cytoplasmic portion); Construct pGEX 4T2 VAMP8_(1-76); GST of pGEX vectors is N-terminal (surmise); also called VAMP8_(1-76); wt GSTVAMP8; source: E. coli BL21(DE3) pLysS, purified (glutathione sepharose, S200 gel filtration)
B6: VAMP8_(1-76)His12, GST cleaved (domain or fragment, mouse, UniProt O70404 1-76, looked up)
chain: B2 chain with P44L, P51L
notes: VAMP8, mouse, residues 1-76; Construct pGEX 4T2 VAMP8_((1-76))His12; also called His12-tagged VAMP8; His-tagged VAMP8; source: E. coli BL21(DE3) pLysS, purified (glutathione sepharose, thrombin cleavage of GST, Ni2+-NTA agarose, dialysis); not shown: GST, N-terminal, cleaved
B7: GSTVAMP8 K24AM27A (domain or fragment, mouse, UniProt O70404 1-76, looked up)
chain: B2 chain with K24A, M27A, P44L, P51L
notes: VAMP8, mouse, residues 1-76; pGEX 4T2 VAMP8_(1-76) (mouse) 'and mutants thereof'; also called K24AM27A VAMP8; Lys24AlaMet27Ala mutant of VAMP8; source: E. coli BL21(DE3) pLysS, purified (glutathione sepharose, S200 gel filtration)
B8: His6MycCALM_(ANTH) (CALM ANTH domain, residues 1-289) (domain or fragment)
chain: T1 sequence (looked up)
B9: CALM_(ANTH(1-264)), GST cleaved (domain or fragment, rat, UniProt O55012 1-264, looked up)
chain: T2 sequence (looked up)
notes: source: E. coli BL21(DE3) pLysS, purified (glutathione sepharose, thrombin cleavage of GST, S200 gel filtration); not shown: GST, N-terminal, cleaved
B10: syntaxin3 (residues 195-253), GST cleaved (domain or fragment, human, UniProt Q13277 195-253, looked up)
chain: EGRHKDIVRLESSIKELHDMFMDIAMLVENQGEMLDNIELNVMHTVDHVEKARDETKKA
notes: syntaxin3, human, residues 195-253; Construct pGEX 4T1syntaxin3_((195-253)) (human); also called syntaxin3_((195-253)); Synatxin3(195–253); source: E. coli BL21(DE3) pLysS, purified (glutathione sepharose, thrombin cleavage of GST); not shown: GST, N-terminal, cleaved

Columns and labels:
[1] = target: T1, His6MycCALM_(ANTH) (CALM ANTH domain, …); test: ITC; VPiTC; 2 mM His6MycCALM_(ANTH) (WT or mutant) or GST cleaved Epsin_(ENTH) titrated in 37 injections of 4-8 μL into 0.15 mM GST-SNARE in the cell; 100 mM HEPES pH 7.4, 150 mM NaCl, 4 mM DTT; legends give a representative run with SEM of the fit, the text the average of all runs; settings: both partners purified
[2] = target: T2, CALM_(ANTH(1-264)) part of the …; test: crystal structure; CALM_(ANTH(1-264)):VAMP8_((11-41)) chimera on one chain, GST cleaved; sitting drops at 16°C, 100 mM phosphate-citrate pH 4.2, 200 mM NaCl, 50% (v/v) PEG-200; 2.0 Å; PDB 3ZYM; settings: both partners purified
[3] = target: T3, SNAP23, GST cleaved; test: pull-down; SNARE complex formation: GST-VAMP8 incubated with a three fold molar excess of SNAP23 and syntaxin3 at 4°C for 48 hr in 20 mM HEPES pH 7.4, 500 mM NaCl, 4 mM DTT, 0.5% NP-40; purified on glutathione-sepharose, then S200 gel filtration; settings: both partners purified
[4] = target: T4, CALM_(ANTH(1-289)), GST cleaved; test: SPR; liposome-based SPR, Biacore 3000, L1 chip; PC/PE + 5% DGS-NTA(Ni) liposomes with captured His12-tagged VAMP8 (600RU); GST cleaved CALM_(ANTH) as analyte, 10 nM to 50 μM, one minute injections at 50 μl/min; PC/PE binding subtracted; settings: both partners purified
[5] = target: GST-SNARE (WT or mutant); test: ITC; VPiTC; 2 mM His6MycCALM_(ANTH) (WT or mutant) or GST cleaved Epsin_(ENTH) titrated in 37 injections of 4-8 μL into 0.15 mM GST-SNARE in the cell; 100 mM HEPES pH 7.4, 150 mM NaCl, 4 mM DTT; legends give a representative run with SEM of the fit, the text the average of all runs
[6] = target: the molecule itself; test: SEC-MALS; analytical S200 10/300 column, 20 mM HEPES pH 7.4, 120 mM NaCl, 4 mM DTT, 0.5 mL/min, inline MALS
[7] = target: B7; test: pull-down; SNARE complex formation: GST-VAMP8 incubated with a three fold molar excess of SNAP23 and syntaxin3 at 4°C for 48 hr in 20 mM HEPES pH 7.4, 500 mM NaCl, 4 mM DTT, 0.5% NP-40; purified on glutathione-sepharose, then S200 gel filtration; settings: both partners purified
[8] = target: B5; test: as above; settings: both partners purified

Binder: B1
Kd [1]: 46 µM

Binder: B2
Kd [1]: 23 µM

Binder: B3
Kd [1]: 20 µM

Binder: B4
binding result [2]: binds

Binder: B5
binding result [3]: binds
Kd [1]: ~18 µM and 17 µM and 20 µM

Binder: B6
Kd [4]: 0.9 µM

Binder: B7
binding result [3]: binds

Binder: B8
stoichiometry N [5]: 0.9 to 1.1

Binder: B9
stoichiometry N [6]: 2

Binder: B10
binding result [7]: binds
binding result [8]: binds
